Assay results reported in US20130209454A1.
Changes are numbered by the printed parent chain. In names and notes the source's numbering stands.

Experiments:
Test in all cases: cell-based or functional assay
[1] = biological target: HIV-1 Env of strain CNE52 (HIV-1)
[2] = biological target: HIV-1 Env of strain BJOX025000.01.1 (HIV-1)
[3] = biological target: HIV-1 Env of strain BF1266.431a (HIV-1)
[4] = biological target: HIV-1 Env of strain 1394C9G1(Rev-) (HIV-1)
[5] = biological target: HIV-1 Env of strain 249M B10 (HIV-1)
[6] = biological target: HIV-1 Env of strain X2088_c9 (HIV-1)
[7] = biological target: HIV-1 Env of strain BJOX015000.11.5 (HIV-1)
[8] = biological target: HIV-1 Env of strain Ce1086_B2 (HIV-1)
[9] = biological target: HIV-1 Env of strain 3365.v2.c2 (HIV-1)
[10] = biological target: HIV-1 Env of strain CNE5 (HIV-1)
[11] = biological target: HIV-1 Env of strain Ce1172_H1 (HIV-1)
[12] = biological target: HIV-1 Env of strain 191955_A11 (HIV-1)
[13] = biological target: HIV-1 Env of strain 191084 B7-19 (HIV-1)
[14] = biological target: HIV-1 Env of strain 246F C1G (HIV-1)
[15] = biological target: HIV-1 Env of strain 6952.v1.c20 (HIV-1)
[16] = biological target: HIV-1 Env of strain SC05_8C11_2344 (HIV-1)
[17] = biological target: Env of HIV-1 strain HIV-001428-2.42 (HIV-1)
[18] = biological target: Env of HIV-1 strain 928-28 (HIV-1)
[19] = biological target: Env of HIV-1 strain T278-50 (HIV-1)
[20] = biological target: Env of HIV-1 strain 191084 B7-19 (HIV-1)
[21] = biological target: Env of HIV-1 strain TRJO4551.58 (HIV-1)
[22] = biological target: Env of HIV-1 strain Ce0393_C3 (HIV-1)
[23] = biological target: Env of HIV-1 strain CNE8 (HIV-1)
[24] = biological target: Env of HIV-1 strain Q259.d2.17 (HIV-1)
[25] = biological target: Env of HIV-1 strain THRO4156.18 (HIV-1)
[26] = biological target: Env of HIV-1 strain Q461.e2 (HIV-1)
[27] = biological target: Env of HIV-1 strain BF1266.431a (HIV-1)
[28] = biological target: Env of HIV-1 strain 6540.v4.c1 (HIV-1)
[29] = biological target: Env of HIV-1 strain 6244_13_B5_4576 (HIV-1)
[30] = biological target: Env of HIV-1 strain 6041.v3.c23 (HIV-1)
[31] = biological target: Env of HIV-1 strain 1394C9G1(Rev-) (HIV-1)
[32] = biological target: Env of HIV-1 strain 191821_E6_1 (HIV-1)
[33] = biological target: Env of HIV-1 strain Ce1172_H1 (HIV-1)
[34] = biological target: Env of HIV-1 strain 6811.v7.c18 (HIV-1)
[35] = biological target: Env of HIV-1 strain 231965.c01 (HIV-1)
[36] = biological target: Env of HIV-1 strain RHPA4259.7 (HIV-1)
[37] = biological target: Env of HIV-1 strain MS208.A1 (HIV-1)
[38] = biological target: Env of HIV-1 strain CNE58 (HIV-1)
[39] = biological target: Env of HIV-1 strain 1054_07_TC4_1499 (HIV-1)
[40] = biological target: Env of HIV-1 strain ZM53M.PB12 (HIV-1)
[41] = biological target: Env of HIV-1 strain BJOX025000.01.1 (HIV-1)
[42] = biological target: Env of HIV-1 strain CNE17 (HIV-1)
[43] = biological target: Env of HIV-1 strain Du422.1 (HIV-1)
[44] = biological target: Env of HIV-1 strain CNE21 (HIV-1)
[45] = biological target: Env of HIV-1 strain ZM214M.PL15 (HIV-1)
[46] = biological target: Env of HIV-1 strain Ce1086_B2 (HIV-1)
[47] = biological target: Env of HIV-1 strain 3365.v2.c2 (HIV-1)
[48] = biological target: Env of HIV-1 strain 6952.v1.c20 (HIV-1)
[49] = biological target: Env of HIV-1 strain X2131_C1_B5 (HIV-1)
[50] = biological target: Env of HIV-1 strain 89-F1_2_25 (HIV-1)
[51] = biological target: Env of HIV-1 strain 6535.3 (HIV-1)

B1: NIH45-46^G54W(HC), S28Y(LC) (antibody, V domains shown)
VH: QVRLSQSGGQMKKPGESMRLSCRASGYEFLNCPINWIRLAPGRRPEWMGWLKPRWGAVNYARKFQGRVTMTRDVYSDTAFLELRSLTSDDTAVYFCTRGKYCTARDYYNWDFEHWGRGAPVTVSS
VL: EIVLTQSPATLSLSPGETAIISCRTSQYGSLAWYQQRPGQAPRLVIYSGSTRAAGIPDRFSGSRWGADYNLSISNLESGDFGVYYCQQYEFFGQGTKVQVDI
B1 gave an IC50, pseudovirus neutralization [1] of 4 ng/mL, an IC50, pseudovirus neutralization [2] of 0.031 µg/mL and an IC50, pseudovirus neutralization [3] of 2 ng/mL. For the same binder, the IC50, pseudovirus neutralization [4] was 12 ng/mL, the IC50, pseudovirus neutralization [5] was 1 ng/mL and the IC50, pseudovirus neutralization [6] was 44.3 µg/mL. The IC50, pseudovirus neutralization [7] was 0.039 µg/mL, the IC50, pseudovirus neutralization [8] was 0.004 µg/mL and the IC50, pseudovirus neutralization [9] was 0.014 µg/mL. For the same binder, the IC50, pseudovirus neutralization [10] was 0.032 µg/mL, the IC50, pseudovirus neutralization [11] was greater than 50 µg/mL and the IC50, pseudovirus neutralization [12] was 0.013 µg/mL. The IC50, pseudovirus neutralization [13] was 1 ng/mL, the IC50, pseudovirus neutralization [14] was 0.036 µg/mL and the IC50, pseudovirus neutralization [15] was 7 ng/mL. It also gave an IC50, pseudovirus neutralization [16] of 0.07 µg/mL.

B2: NIH45-46^G54W (antibody, V domains shown)
VH: B1 VH
VL: B1 VL with Y28S
B2 gave an IC50, pseudovirus neutralization [1] of 10 ng/mL, an IC80 [17] of 1 ng/mL and an IC80 [18] of 0.25 µg/mL. It also gave an IC50, pseudovirus neutralization [2] of 0.014 µg/mL, an IC80 [19] greater than 50 µg/mL and an IC80 [20] of 0.026 µg/mL. It also gave an IC80 [21] of 0.05 µg/mL, an IC50, pseudovirus neutralization [3] of 1 ng/mL and an IC80 [22] of 0.089 µg/mL. For the same binder, the IC80 [23] was 0.24 µg/mL, the IC80 [24] was 0.014 µg/mL and the IC50, pseudovirus neutralization [4] was 1 ng/mL. For the same binder, the IC80 [25] was 1.81 µg/mL, the IC80 [26] was 0.091 µg/mL and the IC80 [27] was 1 ng/mL. It also gave an IC80 [28] greater than 50 µg/mL, an IC50, pseudovirus neutralization [5] of 1 ng/mL and an IC50, pseudovirus neutralization [6] greater than 50 µg/mL. For the same binder, the IC50, pseudovirus neutralization [7] was 0.048 µg/mL, the IC80 [29] was 0.095 µg/mL and the IC80 [30] was 1 ng/mL. It also gave an IC50, pseudovirus neutralization [8] of 0.019 µg/mL, an IC80 [31] of 0.024 µg/mL and an IC50, pseudovirus neutralization [9] of 0.01 µg/mL. For the same binder, the IC80 [32] was 0.099 µg/mL, the IC80 [33] was greater than 50 µg/mL and the IC50, pseudovirus neutralization [10] was 0.009 µg/mL. It also gave an IC80 [34] of 0.033 µg/mL, an IC80 [35] of 0.035 µg/mL and an IC80 [36] of 7 ng/mL. For the same binder, the IC50, pseudovirus neutralization [11] was greater than 50 µg/mL, the IC80 [37] was 0.17 µg/mL and the IC50, pseudovirus neutralization [12] was 0.015 µg/mL. It also gave an IC80 [38] of 0.05 µg/mL, an IC80 [39] of 0.165 µg/mL and an IC50, pseudovirus neutralization [13] of 1 ng/mL. The IC80 [40] was 0.16 µg/mL, the IC80 [41] was 0.135 µg/mL and the IC80 [42] was 0.127 µg/mL. The IC80 [43] was greater than 50 µg/mL, the IC80 [44] was 0.16 µg/mL and the IC50, pseudovirus neutralization [14] was 0.315 µg/mL. For the same binder, the IC80 [45] was 0.15 µg/mL, the IC80 [46] was 0.091 µg/mL and the IC80 [47] was 0.056 µg/mL. The IC80 [48] was 0.01 µg/mL, the IC80 [49] was 0.24 µg/mL and the IC50, pseudovirus neutralization [15] was 1 ng/mL. It also gave an IC50, pseudovirus neutralization [16] of 0.021 µg/mL, an IC80 [50] greater than 50 µg/mL and an IC80 [51] of 0.13 µg/mL.

B3: NIH45-46^G54W(HC) S28Y(LC) (antibody, V domains shown)
VH: B1 VH
VL: B1 VL
B3 showed an IC80 [17] of 2 ng/mL, an IC80 [18] of 0.159 µg/mL and an IC80 [19] greater than 50 µg/mL. For the same binder, the IC80 [20] was 0.016 µg/mL, the IC80 [21] was 0.02 µg/mL and the IC80 [22] was 0.151 µg/mL. For the same binder, the IC80 [23] was 0.156 µg/mL, the IC80 [24] was 0.011 µg/mL and the IC80 [25] was 2.74 µg/mL. It also gave an IC80 [26] of 0.134 µg/mL, an IC80 [27] of 13 ng/mL and an IC80 [28] greater than 50 µg/mL. For the same binder, the IC80 [29] was 0.109 µg/mL, the IC80 [30] was 3 ng/mL and the IC80 [31] was 0.055 µg/mL. For the same binder, the IC80 [32] was 0.13 µg/mL, the IC80 [33] was greater than 50 µg/mL and the IC80 [34] was 0.11 µg/mL. For the same binder, the IC80 [35] was 0.035 µg/mL, the IC80 [36] was 7 ng/mL and the IC80 [37] was 0.089 µg/mL. The IC80 [38] was 0.042 µg/mL, the IC80 [39] was 0.515 µg/mL and the IC80 [40] was 0.257 µg/mL. It also gave an IC80 [41] of 0.211 µg/mL, an IC80 [42] of 0.254 µg/mL and an IC80 [43] greater than 50 µg/mL. It also gave an IC80 [44] of 0.047 µg/mL, an IC80 [45] of 0.258 µg/mL and an IC80 [46] of 0.042 µg/mL. The IC80 [47] was 0.049 µg/mL, the IC80 [48] was 0.042 µg/mL and the IC80 [49] was 0.145 µg/mL. For the same binder, the IC80 [50] was greater than 50 µg/mL and the IC80 [51] was 0.059 µg/mL.
